Positions count from the first letter of the chain named.

The target of data set [1] is T1, YTHDF3 wild type (UniProt Q7Z739 1-585).
T1 sequence: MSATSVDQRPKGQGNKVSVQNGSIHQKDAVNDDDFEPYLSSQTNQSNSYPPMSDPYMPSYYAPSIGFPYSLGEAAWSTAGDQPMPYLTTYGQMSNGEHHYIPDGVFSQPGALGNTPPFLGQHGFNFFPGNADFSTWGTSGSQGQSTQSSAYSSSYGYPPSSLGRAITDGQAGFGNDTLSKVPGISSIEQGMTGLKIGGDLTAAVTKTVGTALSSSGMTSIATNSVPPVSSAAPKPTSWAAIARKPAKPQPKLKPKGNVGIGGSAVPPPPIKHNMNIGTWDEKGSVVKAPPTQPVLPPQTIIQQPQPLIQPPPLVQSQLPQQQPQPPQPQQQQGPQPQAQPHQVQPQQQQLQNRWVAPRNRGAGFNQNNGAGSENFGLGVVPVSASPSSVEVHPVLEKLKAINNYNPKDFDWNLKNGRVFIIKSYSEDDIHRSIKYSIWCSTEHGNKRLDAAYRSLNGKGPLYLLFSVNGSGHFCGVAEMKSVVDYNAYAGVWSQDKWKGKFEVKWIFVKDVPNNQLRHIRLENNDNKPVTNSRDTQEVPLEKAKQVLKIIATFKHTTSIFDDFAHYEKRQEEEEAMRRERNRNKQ
In words: EMSA; SPR: 1x HBS-EP+, biotin-DNA on SA chip (~500 RU), 30 ul/min; EMSA: LightShift kit, 30 C 20 min, then 2% glutaraldehyde on ice 15 min, 5% native gel; pull-down:
The following applies: protein: recombinant, tags: His.

Data set [2] concerns the target T2, YTHDF3-His MT6mA (W438R/W492R) (UniProt Q7Z739 1-585, W438R | W492R).
T2 construct: YTHDF3 with W438R/W492R in the YTH domain, in pET 26b vector; also called YTHDF3-MT6mA-His; YTHDF3 W438R/W492R mutant; source: E. coli BL21 (DE3), purified (His-tag protein purification kit)
T2 sequence (looked up): T1 sequence with W438R, W492R
In words: pull-down; GST pull-down: recombinant YTHDF3-His proteins incubated with recombinant ALKBH1-GST protein beads at 4 °C for 1 h, washed three times, eluted with reduced L-glutathione, western blot. The following applies: both partners purified.

In data set [3] the target is T3, YTHDF3-His (UniProt Q7Z739 1-585).
T3 construct: YTHDF3 inserted into pET 26b vector; pET26b would give a C-terminal His tag (surmise); also called recombinant YTHDF3; wild-type YTHDF3; source: E. coli BL21 (DE3), purified (His-tag protein purification kit); also coexpressed with ALKBH1 in E. coli, in lysate
T3 sequence (looked up): T1 sequence
In words: native gel or EMSA; recombinant ALKBH1 and increasing recombinant YTHDF3 with biotin-labeled 6mA-dsDNA oligos, 30 °C 20 min, 2% glutaraldehyde on ice 15 min, 5% nondenaturing gel. Conditions: both partners purified.

For data set [4], the target named is T1, YTHDF3 wild type. In words: EMSA, pull-down; SPR: 1x HBS-EP+, biotin-DNA on SA chip (~500 RU), 30 ul/min; EMSA: LightShift kit, 30 C 20 min, then 2% glutaraldehyde on ice 15 min, 5% native gel; pull-down:
Conditions: protein: recombinant, tags: His. (In EMSA bound probe runs differently from free probe, usually more slowly.)

Data set [5] deals with T4, ALKBH1;YTHDF3 wild type (Homo sapiens?;Homo sapiens?, UniProt Q13686;Q7Z739 1-389;1-585, |).
T4 sequence 1: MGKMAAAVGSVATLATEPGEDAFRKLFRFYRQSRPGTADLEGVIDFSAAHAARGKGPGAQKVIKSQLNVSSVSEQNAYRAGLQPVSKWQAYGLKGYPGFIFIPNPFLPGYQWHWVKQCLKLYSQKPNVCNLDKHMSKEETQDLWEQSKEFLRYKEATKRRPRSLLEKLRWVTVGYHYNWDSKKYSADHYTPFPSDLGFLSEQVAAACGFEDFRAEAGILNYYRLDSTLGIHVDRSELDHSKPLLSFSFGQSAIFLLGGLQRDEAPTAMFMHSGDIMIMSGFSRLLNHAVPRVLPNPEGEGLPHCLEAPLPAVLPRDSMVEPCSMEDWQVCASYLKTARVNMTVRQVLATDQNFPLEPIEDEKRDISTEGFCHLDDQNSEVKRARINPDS
T4 sequence 2: T1 sequence
In words: pull-down; YTHDF3 increases ALKBH1 binding; SPR: 1x HBS-EP+, biotin-DNA on SA chip (~500 RU), 30 ul/min; EMSA: LightShift kit, 30 C 20 min, then 2% glutaraldehyde on ice 15 min, 5% native gel; pull-down:
The following applies: protein: recombinant;recombinant.

Where [6] appears, read: label: 3' biotin strand 1, duplex with bulge of unpaired nt in strand 1 around 6mA.
Where [7] appears, read: label: 3' biotin strand 1, duplex with internal mismatch bubble around 6mA.

CGUCUCGGACUCGGACUGCU (ssRNA, N6-methyladenosine at A9) [ss-m6A-oligo]: the binding result in data set [1] (label: 5' biotin) is “binds”.

Consider CCCGGUUCGAUUCCCGG (ssRNA, N1-methyladenosine at A10) [tRNA-m1A-oligo], for which the binding result in data set [1] (label: 3' biotin) was “no binding”.

B1: ALKBH1-GST (enzyme, UniProt Q13686 1-389, looked up)
chain: T4 sequence 1
notes: ALKBH1 inserted into pGEX vector; it would add GST at the N-terminus (surmise). 'Recombinant ALKBH1' of EMSA, DNA pull-down and demethylase assays may be this protein or ALKBH1-His; also called recombinant ALKBH1; A1; source: E. coli BL21 (DE3), purified (glutathione Sepharose; on beads or eluted with reduced L-glutathione)
For B1, the binding result in data set [2] and in data set [3] was “binds” each time.

B2: Bulge-6mA (mixed)
DNA 1: AACTTCGTGCAGGCATGGGATCTTGTCTACT
DNA 2: AGTAGACACATGCCTGCACGAAGTT
modifications: N6-methyl-dA at A20 of strand 1
B2: the binding result in data set [4] (setting [6]) and in data set [5] (setting [6]) was “binds” in each case.

B3: Bubble-6mA (mixed)
DNA 1: B2 DNA 1
DNA 2: AGTAGACAGTCGATCATGCCTGCACGAAGTT
modifications: N6-methyl-dA at A20 of strand 1
For the molecule B3, the binding result in data set [4] (setting [7]) and in data set [5] (setting [7]) was “binds” in each case. Turning to AACTTCGTGCAGGCATGGGATCTTGTCTACT (ssDNA, N6-methyl-dA at A20) [ss-6mA], the binding result in data set [4] (label: 3' biotin) and in data set [5] (label: 3' biotin) was “binds” throughout.

(Values after paper PMC12402098, “YTHDF3 recognizes DNA N6-methyladenine and recruits ALKBH1 for 6mA removal from genomic DNA” (The EMBO Journal, 2025).)
